Test results taken from patent US20170327579A1 (ENGMAB, published 2017).

Tests used:
[1] = biological target: T1, human BCMA on myeloma cells (H929, U266, patient bone marrow myeloma plasma cells) (human, UniProt Q02223 1-184); experiment: cell-based or functional assay
T1 sequence (looked up): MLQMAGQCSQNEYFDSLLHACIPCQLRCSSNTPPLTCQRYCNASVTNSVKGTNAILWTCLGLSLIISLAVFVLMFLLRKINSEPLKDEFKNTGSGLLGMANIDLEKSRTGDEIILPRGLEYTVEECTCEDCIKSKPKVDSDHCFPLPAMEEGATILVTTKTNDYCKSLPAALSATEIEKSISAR

[2] = biological target: T1, human BCMA on myeloma cells (H929, …); experiment: cell-based or functional assay; remark: listed apart in the source

B1: pSCHLI333-TCB CLC (bispecific antibody)
heavy 1: not shown
heavy 2: QVQLVQSGAEVKKPGASVKVSCKASGYMFSSFGMSWVRQAPGQGLEWMGWIYPVGQGTWYAQKFQGRVTMTRDTSTSTVYMELSSLRSEDTAVYYCARVSYPPSHFDYWGQGTLVTVSSASTKGPSVFPLAPSSKSTSGGTAALGCLVKDYFPEPVTVSWNSGALTSGVHTFPAVLQSSGLYSLSSVVTVPSSSLGTQTYICNVNHKPSNTKVDKKVEPKSCDKTHTCPPCPAPEAAGGPSVFLFPPKPKDTLMISRTPEVTCVVVDVSHEDPEVKFNWYVDGVEVHNAKTKPREEQYNSTYRVVSVLTVLHQDWLNGKEYKCKVSNKALGAPIEKTISKAKGQPREPQVCTLPPSRDELTKNQVSLSCAVKGFYPSDIAVEWESNGQPENNYKTTPPVLDSDGSFFLVSKLTVDKSRWQQGNVFSCSVMHEALHNHYTQKSLSLSPGK
light: QAVVTQEPSLTVSPGGTVTLTCGSSTGAVTTSNYANWVQEKPGQAFRGLIGGTNKRAPGTPARFSGSLLGGKAALTLSGAQPEDEAEYYCALWYSNLWVFGGGTKLTVLGQPKAAPSVTLFPPSSEELQANKATLVCLISDFYPGAVTVAWKADSSPVKAGVETTTPSKQSNNKYAASSYLSLTPEQWKSHRSYSCQVTHEGSTVEKTVAPTECS
Question: With B1 as the binder, how does the “EC50 (pM) for redirected T-cell killing of H929 cells (LDH release)” value [1] read?
Answer: 980 pM

Question: And the “EC50 (µg/ml) for redirected T-cell killing of H929 cells (LDH release)” value [1]?
Answer: 0.19 µg/mL

B2: pSCHLI372-TCB CLC (bispecific antibody)
heavy 1: not shown
heavy 2: EVQLVESGGGLVKPGGSLRLSCAASGFTFSNSGMIWVRQAPGKGLEWVGHIRSKTDGGTTDYAAPVKGRFTISRDDSKNTLYLQMNSLKTEDTAVYYCTTGGSGSFDYWGQGTLVTVSSASTKGPSVFPLAPSSKSTSGGTAALGCLVKDYFPEPVTVSWNSGALTSGVHTFPAVLQSSGLYSLSSVVTVPSSSLGTQTYICNVNHKPSNTKVDKKVEPKSCDKTHTCPPCPAPEAAGGPSVFLFPPKPKDTLMISRTPEVTCVVVDVSHEDPEVKFNWYVDGVEVHNAKTKPREEQYNSTYRVVSVLTVLHQDWLNGKEYKCKVSNKALGAPIEKTISKAKGQPREPQVCTLPPSRDELTKNQVSLSCAVKGFYPSDIAVEWESNGQPENNYKTTPPVLDSDGSFFLVSKLTVDKSRWQQGNVFSCSVMHEALHNHYTQKSLSLSPGK
light: B1 light
Question: Which “EC50 (pM) for redirected T-cell killing of H929 cells (LDH release), Experiment 1” value [1] does the source give for B2 here?
Answer: 450 pM

Question: And the “EC50 (pM) for redirected T-cell killing of H929 cells (LDH release), Experiment 2” value [1]?
Answer: 900 pM

Question: And the “EC50 (µg/ml) for redirected T-cell killing of H929 cells (LDH release), Experiment 1” value [1]?
Answer: 0.08 µg/mL

Question: And the “EC50 (µg/ml) for redirected T-cell killing of H929 cells (LDH release), Experiment 2” value [1]?
Answer: 0.17 µg/mL

Question: And the “EC50 (pM) for redirected T-cell killing of U266 cells (LDH release)” value [2]?
Answer: 5700 pM

Question: And the “EC50 (µg/ml) for redirected T-cell killing of U266 cells (LDH release)” value [2]?
Answer: 1.1 µg/mL
